Experiments:
[1] = molecular target: T1, βδ-COP dimer with full-length β-COP L124E (R. norvegicus | B. taurus, UniProt P23514 1-953; P53619 1-511, L124E); assay: pull-down
T1 sequence (looked up) 1: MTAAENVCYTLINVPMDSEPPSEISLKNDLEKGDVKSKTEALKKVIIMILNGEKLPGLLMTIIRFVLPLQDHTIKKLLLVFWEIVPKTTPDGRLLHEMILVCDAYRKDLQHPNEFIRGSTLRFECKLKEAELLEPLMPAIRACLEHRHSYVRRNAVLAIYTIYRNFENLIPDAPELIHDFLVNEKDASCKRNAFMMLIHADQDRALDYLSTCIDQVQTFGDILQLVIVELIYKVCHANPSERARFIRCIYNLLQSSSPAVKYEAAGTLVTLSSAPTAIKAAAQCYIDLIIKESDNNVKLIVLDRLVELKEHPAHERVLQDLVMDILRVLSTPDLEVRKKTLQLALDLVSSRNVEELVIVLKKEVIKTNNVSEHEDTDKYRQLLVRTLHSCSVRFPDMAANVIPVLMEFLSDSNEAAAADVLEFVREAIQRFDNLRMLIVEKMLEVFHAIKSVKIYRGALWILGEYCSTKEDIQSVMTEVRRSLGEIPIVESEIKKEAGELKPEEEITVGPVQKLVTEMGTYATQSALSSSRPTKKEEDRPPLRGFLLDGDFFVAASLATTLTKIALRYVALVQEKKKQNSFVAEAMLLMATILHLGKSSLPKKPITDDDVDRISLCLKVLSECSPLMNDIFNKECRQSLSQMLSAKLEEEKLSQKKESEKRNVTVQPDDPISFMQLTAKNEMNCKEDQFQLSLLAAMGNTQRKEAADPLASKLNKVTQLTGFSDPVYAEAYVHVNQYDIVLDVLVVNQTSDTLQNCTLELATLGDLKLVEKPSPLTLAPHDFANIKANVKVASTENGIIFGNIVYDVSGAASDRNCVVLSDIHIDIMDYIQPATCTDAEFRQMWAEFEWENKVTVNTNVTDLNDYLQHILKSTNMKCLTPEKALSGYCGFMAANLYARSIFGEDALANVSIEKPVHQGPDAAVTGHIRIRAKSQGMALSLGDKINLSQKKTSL
T1 sequence (looked up) 2: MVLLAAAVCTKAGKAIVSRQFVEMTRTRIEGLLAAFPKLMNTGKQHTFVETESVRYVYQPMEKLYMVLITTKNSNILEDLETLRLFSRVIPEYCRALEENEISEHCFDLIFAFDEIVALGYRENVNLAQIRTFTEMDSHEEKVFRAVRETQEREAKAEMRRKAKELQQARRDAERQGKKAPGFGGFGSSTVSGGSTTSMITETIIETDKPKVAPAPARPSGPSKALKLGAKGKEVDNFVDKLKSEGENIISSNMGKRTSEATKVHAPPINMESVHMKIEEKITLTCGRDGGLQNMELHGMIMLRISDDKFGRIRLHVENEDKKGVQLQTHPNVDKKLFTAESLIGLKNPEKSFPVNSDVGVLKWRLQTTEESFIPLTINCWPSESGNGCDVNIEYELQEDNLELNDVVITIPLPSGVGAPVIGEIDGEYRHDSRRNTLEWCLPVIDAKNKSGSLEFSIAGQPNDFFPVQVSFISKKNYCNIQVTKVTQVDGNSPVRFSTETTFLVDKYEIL

full-length βδ-COP dimer = molecular target: T2, full-length βδ-COP dimer (R. norvegicus | B. taurus, UniProt P23514 1-953; P53619 1-511); assay: pull-down
T2 sequence (looked up) 1: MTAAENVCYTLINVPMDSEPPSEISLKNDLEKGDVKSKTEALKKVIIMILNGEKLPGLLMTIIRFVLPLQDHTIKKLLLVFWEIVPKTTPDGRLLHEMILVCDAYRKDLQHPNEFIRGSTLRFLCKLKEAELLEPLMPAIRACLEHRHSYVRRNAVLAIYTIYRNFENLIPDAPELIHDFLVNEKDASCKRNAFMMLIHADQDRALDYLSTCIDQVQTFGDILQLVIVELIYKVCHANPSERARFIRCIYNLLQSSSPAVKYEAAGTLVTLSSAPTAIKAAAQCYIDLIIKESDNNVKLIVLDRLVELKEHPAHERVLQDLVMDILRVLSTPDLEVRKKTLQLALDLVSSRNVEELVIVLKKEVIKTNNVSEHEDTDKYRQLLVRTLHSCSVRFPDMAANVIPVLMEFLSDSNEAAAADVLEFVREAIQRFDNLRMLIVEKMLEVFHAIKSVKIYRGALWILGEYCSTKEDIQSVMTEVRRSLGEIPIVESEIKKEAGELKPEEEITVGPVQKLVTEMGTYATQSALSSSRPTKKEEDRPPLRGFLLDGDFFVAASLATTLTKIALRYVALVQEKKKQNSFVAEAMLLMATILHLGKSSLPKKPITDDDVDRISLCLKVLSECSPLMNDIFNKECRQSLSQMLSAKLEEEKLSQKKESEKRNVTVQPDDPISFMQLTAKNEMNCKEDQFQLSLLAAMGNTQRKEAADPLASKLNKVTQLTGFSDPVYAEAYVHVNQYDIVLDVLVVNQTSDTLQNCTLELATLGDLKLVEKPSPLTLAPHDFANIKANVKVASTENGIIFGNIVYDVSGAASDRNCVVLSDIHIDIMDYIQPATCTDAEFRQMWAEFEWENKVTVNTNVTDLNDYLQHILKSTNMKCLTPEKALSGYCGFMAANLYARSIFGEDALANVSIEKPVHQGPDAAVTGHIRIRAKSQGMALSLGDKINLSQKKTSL
T2 sequence (looked up) 2: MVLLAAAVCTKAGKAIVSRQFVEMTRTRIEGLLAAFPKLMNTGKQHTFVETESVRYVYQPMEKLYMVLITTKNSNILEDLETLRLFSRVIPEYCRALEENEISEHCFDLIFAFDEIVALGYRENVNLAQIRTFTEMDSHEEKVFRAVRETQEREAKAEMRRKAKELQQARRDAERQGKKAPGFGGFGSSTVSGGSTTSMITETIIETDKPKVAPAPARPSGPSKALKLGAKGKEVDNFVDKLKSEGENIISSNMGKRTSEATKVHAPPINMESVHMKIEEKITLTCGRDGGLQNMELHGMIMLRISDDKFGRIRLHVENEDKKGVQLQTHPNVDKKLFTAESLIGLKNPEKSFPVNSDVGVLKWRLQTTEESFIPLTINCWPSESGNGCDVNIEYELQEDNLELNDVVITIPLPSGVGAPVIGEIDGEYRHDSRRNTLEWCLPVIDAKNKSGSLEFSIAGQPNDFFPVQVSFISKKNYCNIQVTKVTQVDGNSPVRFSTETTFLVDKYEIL

B1: S. cerevisiae Arf1 (residues 18–181) with a C-terminal GST tag (domain or fragment, UniProt P11076 18-181, looked up)
chain: MRILMVGLDGAGKTTVLYKLKLGEVITTIPTIGFNVETVQYKNISFTVWDVGGQDRIRSLWRHYYRNTEGVIFVVDSNDRSRIGEAREVMQRMLNEDELRNAAWLVFANKQDLPEAMSAAEITEKLGLHSIRNRPWFIQATCATSGEGLYEGLEWLSNSLKNST
- binding result [1]: binds
- binding result (full-length βδ-COP dimer): binds

Reference: PMC3285272 (Cell, 2012)
